Assay results taken from patent US20250367292A1, “HLA SUPERAGONISTS AND USES THEREOF” (UNIVERSITY HEALTH NETWORK, priority 2021, published 2025).

Target: T1, HLA-A*24:02-restricted peptides (Homo sapiens, UniProt P04439, D101N/D140Y/D185E/E176V/E190D/F33S/G103R/G107R/I119L/I121M/I306V/K335N/L105A/L180Q/L300P/N151K/N90K/Q86E/Q94H/R106L/R138H/R89G/T104I/T345S/V100E/W191G/Y123F)
T1 construct: T2 cells transduced with the full-length HLA-A*24:02 genes tagged with ΔNGFR; Furin-SGSG-F2A-linked truncated NGFR (ΔNGFR) co-expression marker (C); expressed in transfected cells; host or cells: T2 cells, retrovirally transduced (pMX)
Test: Peptide-HLA binding assay (biotinylated peptide, SA-PE, flow cytometry)
Type: cell-based
Details: irrelevant control peptides
Experimental: T2-A24 (Wild-type) cells, or T2-A24 cells with a single amino acid substitution at position 81, 82, or 83 were pulsed with 50 μg/ml of biotinylated peptide overnight at 37° C. After intensive washing, the cells were stained by PE-conjugated streptavidin (SA-PE), washed and fluorescence intensity was measured by flow cytometry analysis.

## HLA-A*24:02 (A81L): HLA-A*24:02 with an Ala to Leu substitution at position 81 (A81L), corresponding to SEQ ID NO: 1
  peptide presentation by T2 cells towards non-HLA-A*24:02 restricted peptides: no increase
